Values joined by “and” are separate entries in the source; they are usually repeats but may differ in a detail not shown here. Equal values may be shown once.
Conditions: whole UniProt chain shown
[1] = Salmonella typhimurium (strain LT2 / SGSC1412 / ATCC 700720), pH 9.01, Thermal, DSC, sodium tetraborate 1 mM
[2] = Halobacterium salinarum (strain ATCC 700922 / JCM 11081 / NRC-1), pH 7, Thermal, DSC, phosphate 0.1 M

B1: wild type, Q72LK2 (protein)
chain: MEATLPVLDAKTAALKRRSIRRYRKDPVPEGLLREILEAALRAPSAWNLQPWRIVVVRDPATKRALREAAFGQAHVEEAPVVLVLYADLEDALAHLDEVIHPGVQGERREAQKQAIQRAFAAMGQEARKAWASGQSYILLGYLLLLLEAYGLGSVPMLGFDPERVKAILGLPSHAAIPALVALGYPAEEGYPSHRLPLERVVLWR
Tm (Thermus thermophilus (strain ATCC BAA-163 / DSM 7039 / HB27)): 30 °C

B2: Alpha-lactalbumin wild type, P00711 (protein)
chain: MMSFVSLLLVGILFHATQAEQLTKCEVFRELKDLKGYGGVSLPEWVCTTFHTSGYDTQAIVQNNDSTEYGLFQINNKIWCKDDQNPHSSNICNISCDKFLDDDLTDDIMCVKKILDKVGINYWLAHKALCSEKLDQWLCEKL
Tm (Bos taurus, pH 6, Thermal, DSC, Unknown): 59 °C

B3: FMN-dependent NADH:quinone oxidoreductase 1 wild type, Q88IY3 (protein)
chain: MKLLHIDSSILGDNSASRQLSREVVEAWKAADPSVEVVYRDLAADAIAHFSAATLVAAGTPEDVRDAAQAFEAKLSAETLEEFLAADAVVIGAPMYNFTVPTQLKAWIDRVAVAGKTFRYTEAGPQGLCGNKKVVLVSTAGGLHAGQPTGAGHEDFLKVFLGFIGITDLEIVRAHGLAYGPEQRSQAIDAAQAQIASELFAAA
Tm (Pseudomonas putida (strain ATCC 47054 / DSM 6125 / CFBP 8728 / NCIMB 11950 / KT2440), Fluorescence spectroscopy): 47 °C

B4: Formate dehydrogenase wild type, O13437 (protein)
chain: MKIVLVLYDAGKHAADEEKLYGCTENKLGIANWLKDQGHELITTSDKEGETSELDKHIPDADIIITTPFHPAYITKERLDKAKNLKLVVVAGVGSDHIDLDYINQTGKKISVLEVTGSNVVSVAEHVVMTMLVLVRNFVPAHEQIINHDWEVAAIAKDAYDIEGKTIATIGAGRIGYRVLERLLPFNPKELLYYDYQALPKEAEEKVGARRVENIEELVAQADIVTVNAPLHAGTKGLINKELLSKFKKGAWLVNTARGAICVAEDVAAALESGQLRGYGGDVWFPQPAPKDHPWRDMRNKYGAGNAMTPHYSGTTLDAQTRYAEGTKNILESFFTGKFDYRPQDIILLNGEYVTKAYGKHDKK
Tm (Candida boidinii): 59 °C

B5: Tryptophan synthase alpha chain wild type, P00929 (protein)
chain: MERYENLFAQLNDRREGAFVPFVTLGDPGIEQSLKIIDTLIDAGADALELGVPFSDPLADGPTIQNANLRAFAAGVTPAQCFEMLALIREKHPTIPIGLLMYANLVFNNGIDAFYARCEQVGVDSVLVADVPVEESAPFRQAALRHNIAPIFICPPNADDDLLRQVASYGRGYTYLLSRSGVTGAENRGALPLHHLIEKLKEYHAAPALQGFGISSPEQVSAAVRAGAAGAISGSAIVKIIEKNLASPKQMLAELRSFVSAMKAASRA
Tm [1]: 46.2 °C
unfolding enthalpy (van 't Hoff) [1]: 3.68 kcal/mol

B6: Bacteriorhodopsin wild type, P02945 (protein)
chain: MLELLPTAVEGVSQAQITGRPEWIWLALGTALMGLGTLYFLVKGMGVSDPDAKKFYAITTLVPAIAFTMYLSMLLGYGLTMVPFGGEQNPIYWARYADWLFTTPLLLLDLALLVDADQGTILALVGADGIMIGTGLVGALTKVYSYRFVWWAISTAAMLYILYVLFFGFTSKAESMRPEVASTFKVLRNVTVVLWSAYPVVWLIGSEGAGIVPLNIETLLFMVLDVSAKVGFGLILLRSRAIFGEAEAPEPSAGDGAAATSD
unfolding enthalpy (calorimetric) [2]: 50 kcal/mol and 86 kcal/mol and 104 kcal/mol
unfolding enthalpy (van 't Hoff) [2]: 71 kcal/mol and 125 kcal/mol and 155 kcal/mol
